From publication PMC11211486, “Structural basis for recruitment of peptidoglycan endopeptidase MepS by lipoprotein NlpI” (Nature Communications, 2024)
“And” between values parts separate entries of the source, which are not always exact repeats. Equal entries are not always repeated. Where no end group is shown, it is not given here.

T1: mMepS-Q28A (E. coli, UniProt P0AFV4 27-188, C1 replaced with a Met residue | Q28A)
T1 construct: Site-directed mutant of mMepS; source: E. coli BL21 (DE3), purified (Ni-NTA, SEC)
T1 sequence (looked up): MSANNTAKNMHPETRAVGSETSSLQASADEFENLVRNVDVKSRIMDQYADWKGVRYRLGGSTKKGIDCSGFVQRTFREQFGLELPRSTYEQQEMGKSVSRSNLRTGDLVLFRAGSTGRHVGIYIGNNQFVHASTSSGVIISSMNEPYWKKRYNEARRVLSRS

T2: mMepS-L24R (E. coli, UniProt P0AFV4 27-188, C1 replaced with a Met residue | L24R)
T2 construct: Site-directed mutant of mMepS; also called L24R variant; source: E. coli BL21 (DE3), purified (Ni-NTA, SEC)
T2 sequence (looked up): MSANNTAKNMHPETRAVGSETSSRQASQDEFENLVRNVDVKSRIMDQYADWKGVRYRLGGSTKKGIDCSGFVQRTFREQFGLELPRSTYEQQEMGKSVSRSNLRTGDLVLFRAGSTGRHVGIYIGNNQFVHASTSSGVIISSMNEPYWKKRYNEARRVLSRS

B1: NlpI (residues 20-294), soluble mature lipoprotein NlpI without the lipoprotein signal peptide (natural protein, E. coli, UniProt P0AFB1 20-294, looked up)
chain: SNTSWRKSEVLAVPLQPTLQQEVILARMEQILASRALTDDERAQLLYERGVLYDSLGLRALARNDFSQALAIRPDMPEVFNYLGIYLTQAGNFDAAYEAFDSVLELDPTYNYAHLNRGIALYYGGRDKLAQDDLLAFYQDDPNDPFRSLWLYLAEQKLDEKQAKEVLKQHFEKSDKEQWGWNIVEFYLGNISEQTLMERLKADATDNTSLAEHLSETNFYLGKYYLSLGDLDSATALFKLAVANNVHNFVEHRYALLELSLLGQDQDDLAESDQQ
notes: the lipidation residue C19 is not in the construct; pET28a, N-terminal His-tag followed by a TEV site; also called NlpI dimer; adaptor NlpI; source: E. coli BL21 (DE3), purified (Ni-NTA, SEC, MonoQ)
B2: soluble mature form of MepS (mMepS, residues 1-162) (enzyme, E. coli, UniProt P0AFV4 27-188, looked up)
chain: MSANNTAKNMHPETRAVGSETSSLQASQDEFENLVRNVDVKSRIMDQYADWKGVRYRLGGSTKKGIDCSGFVQRTFREQFGLELPRSTYEQQEMGKSVSRSNLRTGDLVLFRAGSTGRHVGIYIGNNQFVHASTSSGVIISSMNEPYWKKRYNEARRVLSRS
modifications: 15N-labelled in the NMR titrations
notes: Cloned into either pET21a (C-terminal His-tag) or pET28a (N-terminal His-tag and TEV site); also called wild-type mMepS; mature full-length MepS; source: E. coli BL21 (DE3), purified (Ni-NTA, SEC)

Key:
[1] = biological target: T3, NlpI (residues 20-294, without the lipoprotein signal peptide) (E. coli, UniProt P0AFB1 20-294); assay: ITC; NlpI (or NlpI-ΔN) in the syringe, 300 or 600 µM, injected into 30 µM MepS protein in the cell; 20 °C; 20 mM HEPES pH 7.5, 300 mM NaCl, 2 mM β-mercaptoethanol; one set of sites model; three experiments and their average; conditions: both partners purified
T3 construct: the lipidation site C19 is not in the construct; pET28a with an N-terminal His-tag and a TEV cleavage site; also called NlpI-WT; NlpI dimer; source: E. coli BL21 (DE3), purified (Ni-NTA, SEC, MonoQ)

[2] = biological target: B1; assay: ITC; NlpI (300 or 600 µM) injected into 30 µM MepS protein in the cell; 20 °C; 20 mM HEPES pH 7.5, 300 mM NaCl, 2 mM β-mercaptoethanol; one set of sites model; conditions: both partners purified
[3] = biological target: the molecule itself; assay: crystal structure; NlpI-mMepS complex, 2.8 Å, space group C2, PDB 8XUP
mMepS-Q28A = biological target: T1, mMepS-Q28A; assay: ITC; NlpI (300 or 600 µM) injected into 30 µM MepS protein in the cell; 20 °C; 20 mM HEPES pH 7.5, 300 mM NaCl, 2 mM β-mercaptoethanol; one set of sites model; conditions: both partners purified
mMepS-L24R = biological target: T2, mMepS-L24R; assay: as above; conditions: both partners purified
[4] = biological target: B2; assay: as above; conditions: both partners purified
[5] = biological target: B2; assay: NMR titration; 1H-15N TROSY-HSQC of 15N-labelled MepS protein (50 µM in Fig. 1) with unlabelled NlpI dimer (25 µM), NlpI-ΔN or Prc^SK added; 298 K; intensity ratios I/I0; conditions: both partners purified

Row | Binder | Kd [1] | Kd [2] [nM] | other results
1 | MSANNTAKNMHPETRAVGSETSSLQASQDEFENLVRNVD (domain or fragment, E. coli, UniProt P0AFV4 27-65, looked up, MepS, E. coli, mature residues 1-39, C1 replaced by Met; numbers count on: the mature protein; His-tag and TEV site; nothing is said for the ITC samples; source: E. coli BL21 (DE3), purified (Ni-NTA, SEC)) | 2650 nM and 2550 nM and 2840 nM | – | –
2 | MSANNTAKNMHPETRAVGSETSSLQASQDEFENLVRNVD (domain or fragment, E. coli, UniProt P0AFV4 27-65, looked up, also: 15N-labelled, MepS, E. coli, N-terminal 39 residues of the mature protein, C1 replaced with Met. numbers count on: the mature protein; this is told for the NMR samples, not for ITC; source: E. coli BL21 (DE3), purified (Ni-NTA, SEC); not shown: His6 with TEV site, N-terminal, kept) | – | 2680 | –
3 | MepS-N53 (residues 1-53) (domain or fragment, E. coli, UniProt P0AFV4 27-79, looked up, MepS, E. coli, mature residues 1-53, C1 replaced by Met; numbers count on: the mature protein; His-tag and TEV site; nothing is said for the ITC samples; source: E. coli BL21 (DE3), purified (Ni-NTA, SEC)) MSANNTAKNMHPETRAVGSETSSLQASQDEFENLVRNVDVKSRIMDQYADWKG | 1190 nM and 1560 nM and 1590 nM | – | –
4 | MepS-N53 (residues 1-53) (domain or fragment, E. coli, UniProt P0AFV4 27-79, looked up, also: 15N-labelled, MepS, E. coli, N-terminal 53 residues of the mature protein, C1 replaced with Met. numbers count on: the mature protein; this is told for the NMR samples, not for ITC; source: E. coli BL21 (DE3), purified (Ni-NTA, SEC); not shown: His6 with TEV site, N-terminal, kept) MSANNTAKNMHPETRAVGSETSSLQASQDEFENLVRNVDVKSRIMDQYADWKG | – | 1450 | –
5 | B1 | – | – | stoichiometry N [3]: 2; fold decrease in binding affinity against mMepS (mMepS-Q28A): 7.7 fold; fold increase in KD against mMepS (mMepS-L24R): ~28 fold; stoichiometry N [4]: 1; NMR signal intensity ratio with NlpI [5]: < 10%
6 | soluble mature form of MepS (mMepS, residues 1-162) (enzyme, E. coli, UniProt P0AFV4 27-188, looked up, numbers count on: the mature protein; Cloned into either pET21a (C-terminal His-tag) or pET28a (N-terminal His-tag and TEV site); also called mMepS-1; mMepS-2; source: E. coli BL21 (DE3), purified (Ni-NTA, SEC)) MSANNTAKNMHPETRAVGSETSSLQASQDEFENLVRNVDVKSRIMDQYADWKGVRYRLGGSTKKGIDCSGFVQRTFREQFGLELPRSTYEQQEMGKSVSRSNLRTGDLVLFRAGSTGRHVGIYIGNNQFVHASTSSGVIISSMNEPYWKKRYNEARRVLSRS | 250 nM and 220 nM | – | –
7 | B2 | – | 240 | –
8 | mMepS-L24R (enzyme, E. coli, UniProt P0AFV4 27-188, looked up, numbers count on: the mature protein; Site-directed mutant of mMepS; source: E. coli BL21 (DE3), purified (Ni-NTA, SEC)) MSANNTAKNMHPETRAVGSETSSRQASQDEFENLVRNVDVKSRIMDQYADWKGVRYRLGGSTKKGIDCSGFVQRTFREQFGLELPRSTYEQQEMGKSVSRSNLRTGDLVLFRAGSTGRHVGIYIGNNQFVHASTSSGVIISSMNEPYWKKRYNEARRVLSRS | 6210 nM and 6800 nM and 6940 nM and 6650 nM | – | –
9 | mMepS-Q28A (enzyme, E. coli, UniProt P0AFV4 27-188, looked up, numbers count on: the mature protein; Site-directed mutant of mMepS; source: E. coli BL21 (DE3), purified (Ni-NTA, SEC)) MSANNTAKNMHPETRAVGSETSSLQASADEFENLVRNVDVKSRIMDQYADWKGVRYRLGGSTKKGIDCSGFVQRTFREQFGLELPRSTYEQQEMGKSVSRSNLRTGDLVLFRAGSTGRHVGIYIGNNQFVHASTSSGVIISSMNEPYWKKRYNEARRVLSRS | 1910 nM and 1770 nM and 1880 nM and 1850 nM | – | –
10 | mMepS-D39A (enzyme, E. coli, UniProt P0AFV4 27-188, looked up, Site-directed mutant of mMepS; source: E. coli BL21 (DE3), purified (Ni-NTA, SEC)) MSANNTAKNMHPETRAVGSETSSLQASQDEFENLVRNVAVKSRIMDQYADWKGVRYRLGGSTKKGIDCSGFVQRTFREQFGLELPRSTYEQQEMGKSVSRSNLRTGDLVLFRAGSTGRHVGIYIGNNQFVHASTSSGVIISSMNEPYWKKRYNEARRVLSRS | – | 390 | –
11 | mMepS-D39A (enzyme, E. coli, UniProt P0AFV4 27-188, looked up, numbers count on: the mature protein; Site-directed mutant of mMepS; source: E. coli BL21 (DE3), purified (Ni-NTA, SEC)) MSANNTAKNMHPETRAVGSETSSLQASQDEFENLVRNVAVKSRIMDQYADWKGVRYRLGGSTKKGIDCSGFVQRTFREQFGLELPRSTYEQQEMGKSVSRSNLRTGDLVLFRAGSTGRHVGIYIGNNQFVHASTSSGVIISSMNEPYWKKRYNEARRVLSRS | 280 nM and 390 nM and 500 nM | – | –
